The subject of assay [1] is MCF7 cells. As to the kind of experiment: MCF7 tumor growth in nude mice. The format is in vivo. The following applies: 2.5 mg/kg cisplatin once a week, estradiol pellet. As for the experimental part:
FIGS. 5A-C. Antibody effects on ETP-MCF7 cells in vivo. (FIG. 5A) ETP transfected MCF7 cells (2×10^6 cells) were implanted into nude mice. An estradiol pellet (0.72 mg) was implanted into nude mice. Then (i) 20 mg/kg ETPmAb4, (ii) 10 mg/kg ETPmAb4 with 10 mg/kg control IgG, (iii) 5 mg/kg ETPmAb4 with 15 mg/kg control IgG, (iv) 2 mg/kg ETPmAb4 with 18 mg/kg control IgG, and (v) 20 mg/kg control IgG (twice a week) were injected after 10-days implantation for 5-weeks. Tumor volume was determined by caliper measurement. Data was represented as mean±SD (n=5/group), and *** p<0.0001 by ANOVA followed by Newman-Keuls multiple comparison test. (FIG. 5B) Total RNA was prepared from tumor tissues from ETP transfected MCF7, ETPmAb4 treatment mice. The EMT markers genes Twist, Snail, Cdh2 and Cdh 1 were determined by qRT-PCR, then normalized to GAPDH. […] Tumor volume was determined by caliper measurement. […]
(§1) Animal experiments. […] Tumors were measured twice a week, beginning 10 days after injection, and tumor volume was calculated by length×(width) 2/2 (mm^3).
(§2) Analysis of Tumor Progression. Tumor onset was monitored twice weekly by palpation. Tumor sizes were measured using a digital caliper twice weekly and the volumes were calculated as length× width2)/2. […] Animals were sacrificed when the tumor burden visibly affected the host, or when the tumors reached the IACUC pre-determined limit of 20 mm along one axis. […]

The subject of assay [2] is ETP transfected MCF7 cells. As to the kind of experiment: ETP transfected MCF7 tumor growth in nude mice. It counts as in vivo. The settings on record: 2.5 mg/kg cisplatin once a week. Here is the method: FIGS. 5A-C. Antibody effects on ETP-MCF7 cells in vivo. (FIG. 5A) ETP transfected MCF7 cells (2×10^6 cells) were implanted into nude mice. An estradiol pellet (0.72 mg) was implanted into nude mice. Then (i) 20 mg/kg ETPmAb4, (ii) 10 mg/kg ETPmAb4 with 10 mg/kg control IgG, (iii) 5 mg/kg ETPmAb4 with 15 mg/kg control IgG, (iv) 2 mg/kg ETPmAb4 with 18 mg/kg control IgG, and (v) 20 mg/kg control IgG (twice a week) were injected after 10-days implantation for 5-weeks. Tumor volume was determined by caliper measurement. Data was represented as mean±SD (n=5/group), and *** p<0.0001 by ANOVA followed by Newman-Keuls multiple comparison test. (FIG. 5B) Total RNA was prepared from tumor tissues from ETP transfected MCF7, ETPmAb4 treatment mice. The EMT markers genes Twist, Snail, Cdh2 and Cdh 1 were determined by qRT-PCR, then normalized to GAPDH. E-CAD immunofluorescence staining for tumor tissues from ETP transfected MCF7 and ETPmAb4 treatment tumor. (FIG. 5C) MCF7 and ETP transfected MCF7 cells (2×10^6 cells) were implanted into nude mice. An estradiol pellet (0.72 mg) was implanted into nude mice. Then 20 mg/kg of antibody ETPmAb4 (twice a week), and 2.5 mg/kg of cisplatin (once a week) were injected after 10-days implantation for 6-weeks. Tumor volume was determined by caliper measurement. Data was represented as mean±SD (n=5/group), and *** p<0.0001 by ANOVA followed by Newman-Keuls multiple comparison test.
Animal experiments. NU/NU nude female mice were purchased from Charles River (Crl: NU-Foxnlnu; Strain Code 088 (Homozygous)). Breast cancer cells (2×10^6 cells) were implanted by intraductal injection. All cell lines were mixed on ice with 1×PBS and Matrigel. Then 100 μL of mixture was injected into mice. Tumors were measured twice a week, beginning 10 days after injection, and tumor volume was calculated by length×(width) 2/2 (mm^3).
Analysis of Tumor Progression. Tumor onset was monitored twice weekly by palpation. Tumor sizes were measured using a digital caliper twice weekly and the volumes were calculated as length× width2)/2. Inguinal tumors were weighted to determine tumor burden. Animals were sacrificed when the tumor burden visibly affected the host, or when the tumors reached the IACUC pre-determined limit of 20 mm along one axis.
As a next step, whether the anti-endotrophin antibodies effectively curb the aggressive tumor growth observed in endotrophin overexpressing MCF-7 cells was examined. To boost the growth rate of the tumor cells, these assays were performed in the presence of estradiol pellets. Cells (2×10^6 cells) were injected into nude mice and their tumor growth was monitored over time, based on a twice weekly injection of either a control monoclonal preparation, or ETPmAb4; in all cases, a total of 20 mg/kg of antibody was used. The dose dependence was tested by either injecting 20 mg/kg of control antibody, 20 mg/kg of ETPmAb4, or a mixture of the two with decreasing levels of control antibody mixed with increasing levels of ETPmAb4.
To test this, MCF7 cells were used with or without endotrophin overexpression, and the cells were transplanted into nude mice, in the presence of estradiol pellets (FIG. 5C). […] As expected, MCF7 cells harboring an excess in endotrophin grew very aggressively (FIG. 5C; red line).

The subject of assay [3] is MDA-MB-231 cells. As to the kind of experiment: MDA-MB-231 tumor growth in nude mice. It counts as in vivo. The settings on record: 2.5 mg/kg cisplatin. Here is the method:
FIGS. 6A-D. The antibody effects on MDA-MB-231 cells in vivo. (FIG. 6A) MDA-MB-231 cells (2×10^6 cells) were implanted into nude mice. Then 2.5 mg/kg of cisplatin and 20 mg/kg of ETPmAb4 antibody (twice a week) were injected after 10-days implantation for 5-weeks. Tumor volume was determined by caliper measurement. The insert reflects a simplified analysis of control antibody versus ETPmAb4 with associated statistics. (FIG. 6B) MDA-MB-231 cells (2×10^6 cells) were implanted into nude mice. Treatment was started when the tumor volume was over 30 mm^3. At that point, 2.5 mg/kg of cisplatin and 20 mg/kg of ETPmAb4 antibody (twice weekly) were injected for 5-weeks. Tumor volumes were determined by caliper measurements. The insert reflects a simplified analysis of control antibody versus ETPmAb4 with associated statistics. (FIG. 6C) SKOV3 cells (2×10^6 cells) were implanted into nude mice. Then 2.5 mg/kg of cisplatin and 20 mg/kg of ETPmAb4 antibody (twice weekly) were injected 10-days after implantation for 5-weeks. Tumor volumes were determined by caliper measurements. The insert reflects a simplified analysis of control antibody versus ETPmAb4 with associated statistics. (FIG. 6D) MDA-MB-231 cells (2×10^6 cells) were implanted into nude mice. Then 2.5 mg/kg of cisplatin, 20 mg/kg of ETPmAb4 antibody and 20 mg/kg of humanized ETPmAb4 antibody (twice a week) were injected after 10-days implantation for 5-weeks. Tumor volume was determined by caliper measurement. […]
as §1, §2
After humanization, the binding affinity of hETPmAb4 to endotrophin was measured in Octet RED96. […]

The target in assay [4] is T1, recombinant endotrophin protein (Homo sapiens, UniProt P12111).
T1 construct: the latter consisting of 77 amino acids at the carboxy-terminal of the COL6α3 chain; CD33 signal peptide (N, cleaved yes); His-tag with EK-cleavage site (N, cleaved yes); purchased Sino Biological, Beijing, China; host or cells: HEK293
T1 sequence (P12111 3101-3177): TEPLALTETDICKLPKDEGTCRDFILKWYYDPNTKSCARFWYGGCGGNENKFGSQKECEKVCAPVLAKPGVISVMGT
The experiment in a line: Affinity measurement with BLI (Octet RED96). The settings on record: Octet (96-Red), 1:1 binding model. Here is the method:
FIGS. 12A-B. Kinetic sensorgrams for ETP-mAb4 (FIG. 12A) and each of the humanized antibodies (FIG. 12B). […]
For antibody affinity measurement, antibody (30 μg/mL) was loaded onto the protein A biosensors for 4 min. Following a short baseline in kinetics buffer, the loaded biosensors were exposed to a series of recombinant endotrophin protein at 0.1-200 nM and background subtraction was used to correct for sensor drifting. All experiments were performed with shaking at 1,000 rpm. Background wavelength shifts were measured from reference biosensors that were loaded only with antibody. Kinetic sensorgrams for each antibody are shown in FIGS. 12A&B. ForteBio's data analysis software was used to fit the data to a 1:1 binding model to extract an association rate and dissociation rate. The Kd was calculated using the ratio of koff/kon and the estimated values of […] for endotrophin ETP-mAb4 and 4 humanized ETP-hMab4 antibodies are listed in Table 4.
On the technique in general: BLI is a label-free optical method that tracks binding on a fibre tip over time.

In the case of `N.N.[Cl][Pt][Cl]` [cisplatinum, cisplatin, reference compound], in assay [1], the “lesion growth, cisplatinum” value is “significantly curbed lesion growth”. In assay [2], the “lesion growth, cisplatinum alone or with control antibody” value is reported as “moderately reduced”. For the same molecule, the “lesion growth, cisplatinum alone or with control antibodies” value in assay [3] is on record as “reduced”.

B1: ETP-mAb4.4: humanized IgG1 version of ETPmAb4; VH SEQ ID NO: 161, VL SEQ ID NO: 158 (antibody, V domains shown)
VH: EVQLLESGGGLVQPGGSLRLSCAASGFSFSSGYYICWVRQAPGKGLEWIACIYGGNNNPYYANWVNGRFTTSRDNSKNTLYLQMNSLRAEDTAVYYCARKDINIGGAYELWGQGTLVTVSS
VL: DIQMTQSPSSLSASVGDRVTITCQASQSISSSYLSWYQQKPGKAPKLLIYKASTLASGVPSRFSGSGSGTDFTLTISSLQPEDFATYYCQYSDWANSYGNAFGGGTKVEIK
modifications: human IgG1 constant regions
For B1, in assay [4], the kdis is 3.28 E−04 1/s and the kon is listed as 1.30 E+05 1/Ms.

B2: ETP-mAb4.2: humanized IgG1 version of ETPmAb4; VH SEQ ID NO: 159, VL SEQ ID NO: 158 (antibody, V domains shown)
VH: EVQLLESGGGLVQPGGSLRLSCAASGFSFSSGYYICWVRQAPGKGLEWIACIYGGNSNPYYANWVNGRFTISRDNSKNTLYLQMNSLRAEDTAVYYCARKDINIGGAYELWGQGTLVTVSS
VL: DIQMTQSPSSLSASVGDRVTITCQASQSISSSYLSWYQQKPGKAPKLLIYKASTLASGVPSRFSGSGSGTDFTLTISSLQPEDFATYYCQYSDWANSYGNAFGGGTKVEIK
modifications: human IgG1 constant regions
Consider B2, for which, in assay [4], the kdis is on record as 3.05 E−04 1/s and the kon is listed as 1.23 E+05 1/Ms.

B3: ETP-mAb4.1: humanized IgG1 version of ETPmAb4; VH SEQ ID NO: 157, VL SEQ ID NO: 158 (antibody, V domains shown)
VH: EVQLLESGGGLVQPGGSLRLSCAASGFSFSSGYYICWVRQAPGKGLEWIACIYGGNNNPYYANWVNGRFTISRDNSKNTLYLQMNSLRAEDTAVYYCARKDINIGGAYELWGQGTLVTVSS
VL: DIQMTQSPSSLSASVGDRVTITCQASQSISSSYLSWYQQKPGKAPKLLIYKASTLASGVPSRFSGSGSGTDFTLTISSLQPEDFATYYCQYSDWANSYGNAFGGGTKVEIK
modifications: human IgG1 constant regions
Regarding B3, in assay [4], the kdis was 2.35 E−04 1/s and the kon is recorded as 1.16 E+05 1/Ms.

B4: ETP-mAb4.5: humanized IgG1 version of ETPmAb4; VH SEQ ID NO: 162, VL SEQ ID NO: 158 (antibody, V domains shown)
VH: EVQLLESGGGLVQPGGSLRLSCAASGFTFSSGYYICWVRQAPGKGLEWIACIYGGNSNPYYANWVNGRFTISRDNSKNTLYLQMNSLRAEDTAVYYCARKDINIGGAYELWGQGTLVTVSS
VL: DIQMTQSPSSLSASVGDRVTITCQASQSISSSYLSWYQQKPGKAPKLLIYKASTLASGVPSRFSGSGSGTDFTLTISSLQPEDFATYYCQYSDWANSYGNAFGGGTKVEIK
modifications: human IgG1 constant regions
On to B4, for which, in assay [4], the kdis is 2.23 E−04 1/s and the kon was 1.16 E+05 1/Ms.

For the origin of these results see patent US12331110B2, “Monoclonal antibodies against endotrophin and the use thereof” (THE BOARD OF REGENTS OF THE UNIVERSITY OF TEXAS SYSTEM, priority 2018, dated 2025).
